Our source for the protease stability score values is the NTF2 design screens of Basanta et al. (2020).

This data set can be described thus: protease stability score; higher = more stable; yeast display proteolysis, trypsin and chymotrypsin.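 Note: relative to predicted unfolded state with 0 unfolded-like and 1 meaning tenfold more protease.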
With “SEDETIALEFLKNWLRDLKTGNEEALSKLLDPNARMVFNGKEHHGREILLDIIKHFVERIDHFNSLHVHDIKIQGDKVHMDLRLIGHVDGREVEHRIHMVIIKYDGRWINQVEEIE”, the protease stability score stood at 1.16. As to “DEDHKLLEKFYRIWVEMFKTGDEERWKHLADPDARSDINGVDFIGRDTVSKIMESFLRKMGFDHMEIRRFDFQGEKIKSDVVLDFNGRDVRTEIHIIVVDGRIKEERFRVT”, the protease stability score was found to be 0.192.

“TEEEEHTDMVRRIWVEIAKTGDERSWEKYFDPNARMHIFFNGQEIELHGRETITKWLHETLTRIKGLRMEIEHFENIGDKVHMDTRFIIGDKERKSEVEIIVVDGRLKSVTIRHR” registered a protease stability score of 1.78.

With “TEEEEILREAYELFFKMMKTGDEHMKSRLADPNVRLHIGDKENHGMDEVIRVFREEHKRYKNLTLRHWHLEDSHVVNGRIILHYKMNVEVNGVEIETSVHVVIRKINGKWELESLSVE”, the protease stability score came to 0.882. In turn, “SEEEHHARYMTQLFLHALETGDWHELRRMADPNMRLRVRVGDKHWHYHGWEHLHELLESFLKRVDHVEFIERSIHVQGEKSRFRGDVREHVGDKEHTHHIILILDIVNGKIHRIIIINE” displayed a protease stability score of 1.37. The same measure for “DHEEDLSHEFLERLVSAWRTGDEHTWNRLADPNYKLEINGRHSVGREDSLRVIKDIRDKYKGLTIDDVTIKDVRIFDGVIRAKMVLQLNFNGVNIEEEVDIVIEKVDGRWFLKFEIVK”: 0.653; for “DRRQEELRRMAEIWIHNELTGNEDEFRKLADPNVRFHLHVNGRVLSSHGMETLVKLFRELLEEWRIKEIHIHDMHIQGDKVHLEGRRRGTIGDKEDIYEVEIHVVIVNGKMKEITVIIK”: 1.51. “DEEEKLDREIEKTMKETIETGDEHLLSELIDPHARLVFNGKDFHGMEEATRFWYELVTRFKNLTFVPKDVKVFDGRLIMHGINLVNGVERRLTIVVEKINGRWVIRSIHIK” displayed a protease stability score of 1. Consider “GEEDEEFSKLMDETVKSLQTGDETHLKKLLDPNVILHVGDKEFHGRERAIDWYRHLRIHDMTIHHWEIQGDKAHVDGKLHVEVDGQHYDAKLHIVLEKINGQWYITSIHYK”, for which the protease stability score was 2.06.

As for “SEDEEKASEVARRFVRSLATGDFDTLTRLMDPNYKHVYGDKEFVGREVIREHLEELRLHFEDNKVKHVRVIGDKIDTDMEVRFTVEFDGVRVHHEMKVEFRILKINGRWFLEFTIIR”, the protease stability score was 0.337. As for “EETREASRIALEIFIRDLVTGNEDSLERLADPDTKFIINGRNYHGMEFLREEIRKWLERFKNIRVEVKVHHQRVFENHIEMDGRLDFNYDGQKEILEVRLFMVKFNGKWYIHSIEIR”, the protease stability score was 2.24. The same measure for “DEMKEEQRKFSELAIHNFETGDEDTFHRLADPHTKVEINGVLHIGRETVTTFFSHYWELFGVDHFEEKDRKIEIQGEKVITRIRGIIHFNGRQTDVLIRLEIRKINGRWILHSFTIEHI”: 0.579; for “DHVEEEAEEFVRNFIHNMRTGNWKYMEELLDPNVRLRYGDKDHHGREEMVKWIEEAFKKFKNLTIEIKHINIIGDKLIFDLHVEFNGKHHQLHLIVTKIDGKWISKSIHVD”: 1.47.

For “DEREKFAEEIMEIFIRDVLTGDFDSLHKLIDPNTKIDLHIGDKIRPLHGREEFVKWVKEMRIHRWDITDMKVIGDKAHIDTTVDGEFNGRRTRFRQIINLDMVNGRLREIQITIG”, the protease stability score was found to be 2.2.

In turn, “SEDDHERHRFLELIKHNHKTGNEENIYRMADPDVRLHIGDKEFHGMEHHMEFLREWLDRLGIDKVEFQVERIHVQGDKINVDVNLNVNGKHYRVILYLIKIDGRWRIKLLEIR” displayed a protease stability score of 0.884.

Turning to “SEDEELEKVFLRILKEILTTGDEDTLRFLLDPNARMHVGDKELHGWSNVYEQINQLRIKDYELRDFKRVGDKVDFDGRNHGHFNGRDVEHRARLIIQKIDGRWFIHANIIE”, the protease stability score came to 0.626. In turn, “SEREEYLEEMFHLFIHYLLTGDWELLINLMDPHARNEIHINGVIFLVHGRELVKEIWERFRKHIRIKHIHVEELRVQGDKAESHTWVHYTIDGRESRVFTRVEIRIIDGVVRRISVEIR” yielded a protease stability score of 1.72. The sequence “SEDIKEIKDILRTMYEAFITGDWRTVAKLFDPHVRIEYDGVRLHGREHVEHFLRHLRERVEWHHIEDTQEQGDYIELHGRTILNIEIGDKRDRRDSHFILMMVKVDGRWLIHRIIIR” returned a protease stability score of 2.21. The same measure for “DEEEKKAQEFLEFVMSALETGDEETLKRLMDPRVRLRFDGRDIHGREEVLRVWIEVLKRADHVRVEIRDMEFQGDKLHIHFELILHIGDKENHIEIRQNVFKVDGQWIIKEHEIR”: 2.22; for “DERDEHAHHFFELLLKMWETGDEHELIKFFDPDPRFIYNGKELHGREIAEEFIKEWRVHDMRVKRINVQGEKVIFDGIMDGEFNGKRIFIETHIYMTKVNGKWRTKFIEFN”: 1.42; for “SDEEKHAEEYHRQLTRDIMTGDEHILHELVDPHVLERVDGKDNHGWEEIAHFWVRFKNMRMHIEIHEIRHIGDFVDSDIKIRVVYNGKDITMRVHFHVEKINGRWLTTHIRIK”: 0.352. In the case of “DEEEERVRNFVERLSKAVRTGDEEEMRDLFDPDVKSRQGDKDVIGRELVAEWLSKFFLRRGIEVHFELKRFEFQGDYLHLRLHVEVRIDGKDHTLTMYVLLIKVDGRWILHSIHRE” it was 1.54. The sequence “DEHEELLRRIFELLLHALKTGDEDLLYKMADPNTRSIIGDKIHHGMEEHRKAVEKWLREMGVKHIEIKRVHIQGEKIHIDTHWKVGDKSETVKINIHVIDGRLTEIHIEIE” yielded a protease stability score of 1.

Turning to “DEEEEIARKYITLLVKSFLTGDERSIERLVDPHYRHDVGDKHVHGRERFTRHIYENLIRVKGIRVEVIVEHIRVINGRVEVDMQIHWKQGEFQILITSRMHVEKVDGRWLIREVEID”, the protease stability score turned out to be 0.976. The same measure for “SSEEHDAKNMHKMFREAMMTGDEDLLKNLLDPHVRLTFNGKDFHGWDRVYELFRKRLEHLGITWKDWDLHIIETQGDKVELNSTLHGRVGDKHVDDHTTLFIRKIDGQWVLTEVRIG”: 1.46; for “DEEDKHADWIMKQMVDLWTTGDEETSITLLDPNVKLHVDGRDIHGREKAMEWLRRFIVHLRIEIIIRHFDFQGNFARFHGELEIRIGDKSQVLETRLEIIVVNGKFRILEIELR”: 2.71. As for “SEDHELLKRELETFIKHLETGDEDILRRLADPHVRLEYNGKEFHGRDRIVEEWVRIAREIRIKVEIHHITYIGDKLEVDTILKIEQGDKRTEFRIEIFIQKVNGQWLLKEIKIK”, the protease stability score worked out at 1.44.

“SEEEEYARKAAEEFIKHVETGNEDKIILLFDPNALYVYNGVELIGWHVFKEHTHRFKNIRRHITHVEIRVINGVVHVHIDGRFHVNGVDVEQEINIVFRKINGRWKIESNEERFR” had a protease stability score of 1.57. In the case of “DEWKEDSRRAIELELRHLQTGDEDLTEKYADPHARVHIGDKEFHGRDHYIETLRRMGIKHVEVREIREQGDFLKMDVHVNVDGRELTVHFVMRKVNGRWRIHMIEVR” it was 1.11; in that of “SEDEEIHRKMFEDILHALRTGDWRELKHNLDPNVRLEVDGREIHGWEEVVKFLHEARVEHIEMRIRHVEFQGEKIISHRHMIFHKDVNGVRVDQRHDFTTIILKVNGRWRYHSIKID”, 1.36. Regarding “DEDREFAERVMKLLLHSLITGDFRRIHELADPHMRLHQGDFNIIGWDTIYEIMFRLGFRLDDFRIEHMDVVDGRVFLQGRSDGTINGRRTRTNVNIIIEKIDGRWYLRENEVR”, the protease stability score is 1.08. As for “DEEEELAIEVVQRWVEDFLTGDFRSFRELADPNTKTRINGQEMHGRHVYVEWFVKWLKQIDHHDFKLHDVKVINGQVHTDGEMRLEVNGREHRSRVELILVIINGRLHMVELRIK”, the protease stability score came out at 2.13. The same measure for “SEDHEAAHEVIREWEKVHKTGDEHIFTQLLDPHMRIEIGDKRFHGRDEAVTHFRENLTHWRIHRMEMEDVNSQGEYIIYHVQNFVRINGKVVILDLTIIILKVDGRWVIHSIHIK”: 1.24. On to “SEAEEFARRVIELWIRSILTGNPDMSEKLADPNYKVHFNGVNIVGMEEFYRHLEEWRIHIDDFRIRDVRVQGDKMINDTEERITIKYGDKEIHLDVRLEIIIRKIDGRWHMHSIILH”, for which the protease stability score was 2.2. In the case of “DETTEIQEKLAKELMRLLLTGNEEEIMKNADPDVREHVLVDGKHINNIGREEVHRVRRELLEKVKNLRIRINRVEIQGEKVRMETTLHIDGQDIHVIYIFIIINGRIKEVHIEIR” it was 0.708; in that of “DEEEDRLRRLAKTLLENWVTGDEEMHQRFADPNTRLNVDVDGKEIHRHGREEMLKDLRHELERVDHWELRLRDMKIFDGVVDIDGELILNINGKVIRQEVRIIMVIVNGRLRSVHFQVH”, 1.26. In turn, “SEEEWLTEYIWRVFIRLLLTGDERAINKLLDPHVQVDVGDKRIHGRELLSHIWRTEAEEIRHHIEVKRFHSQGEKVHHDVRITIIINGQVHRIEAHIHLFIYDGRITHIEVEFR” returned a protease stability score of 1.36. Consider “SDEHDVVRELLEIMEIVWRTGDWREMTKMFDPNTRISYGDKYIVGWEALEVLLKRIDHHTMHEIHFRDVHVQGDKIRLDGEVRFERHVGDYREHVTVDVHIHARKIDGRWINTNIRTH”, for which the protease stability score was found to be 0.743. In the case of “DEDEKMLREYQRLFEEASKTGDWEHMVKLLDPDVRIRIGDKDIVGREHVLEQKKRHEDHLGIDRVNIKLVIRDERHQGEKIFLDGEFIMHFNGRTYRQHVTIILTKINGRWWIESIEIR” it was 1.19. Sequence “DEDTEEMRRFLKAFIRALETGNFEETLRLLDPNVRIRIGDKQLIGREEWHKWRERVDHYEVDDIEIEDMRVIGNKVHVFGRVDIKLIIGDKEHQDRKEVHIIMLKVNGRWLIHEIEVH” registered a protease stability score of 1.91. The same measure for “EEEDDVLHEFLREFIHFFSTGDFDHIIEMLDPNTQQHVGDKINIGREEWKHWLKFHLDRLGVDQVRVHVRRVRFFNGRVELNIELRQGDYVFDARILALKVDGRWLLESVEIK”: 2.82. The same measure for “DHRDRYAEEVAHRLLKLRHTGDEEIYHEFADPNDRLIIWIGDKSIHSHGRSLVVQVLRRLHEHWRLEDMFIHDEKLVGEKSNMDIHVVGNINGKRMETTEKFTVRVINGRLHTLEIHLD”: 0.474. For the sequence “SEEEESSERATKILRELLKTGNFRLLLELMDPNARLHTHINGVNIHDHGRNLARWLVERIKNAVIKINDEEVRIFNGRVEVDIDGELLINGRNFRVHEHWIFRKIDGKWFFEEVEIRVE”, the protease stability score came to 2.16. The sequence “DEEEKHIRKMAEDLKRAFATGDWELLLEMFDPDVRINIIVNGRIIEEHGMENHVRKHVELGITVRLKDEHVESQGNWAHHEGRLEVNVNGKEKSFDVHINLLIVNGRLKESHLKIE” came in with a protease stability score of 2.07. The same measure for “SEHHKLLVEIAHLWIRNVLTGDEDRLKEMADPNVRIHINGVDIHGMEDFVRHVHERLKEIWIRIEIKRMVPYDGRAEVDGTMHVIVNGQKLSRRVHYDIIIVDGVLQEQHVHVE”: 1.64; for “SEEERDAEENIRLYEELWRTGDFDIFKHLADPNVRLHINGRDVHGRENVSRLISEWRDEDIILRHFTVIDGRIEVHSEFHGQVDGQRRNTRIHIHLRKINGQWRLTEVKYE”: 1.12; for “SEEERLYEHAWKLYIHDFITGDEKSHSRLADPHTQMIIGDKLLIGREEFVKWMKHLLDQVKNITVEHVKIRHEHYQGDKAHIDVEEEIHFNGQRHKRRVILTILKVNGRWSIESVEYT”: 0.898.
